In PMC6748592 one finds Kd data, which are given here for one molecule.

The assay addresses CD52 peptide mimotope (…) (human). Put plainly: SPR. Background: In SPR one partner is held on a chip, and binding of the other changes the refractive index at the surface.

B1: MAB1 light chain N33D mutant (antibody, V domains shown)
VH: EVQLVESGGGLVQPGGSLRLSCAASGFPFSNYWMNWVRQAPGKGLEWVGQIRLKSNNYATHYAESVKGRFTISRDDSKNSLYLQMNSLKTEDTAVYYCTPIDYWGQGTTVTVSS
VL: DIVMTQTPLSLSVTPGQPASISCKSSQSLLYSDGKTYLNWVLQKPGQSPQRLIYLVSKLDSGVPDRFSGSGSGTDFTLKISRVEAEDVGVYYCVQGSHFHTFGQGTKLEIK
Usually Kd stands for the concentration at which binding is half-saturated. Read a low Kd as higher affinity. Turning to B1, the Kd came out at 1250 nM.
